B1: MlaE (natural protein)
chain: MLLNALASLGHKGIKTLRTFGRAGLMLFNALVGKPEFRKHAPLLVRQLYNVGVLSMLIIVVSGVFIGMVLGLQGYLVLTTYSAETSLGMLVALSLLRELGPVVAALLFAGRAGSALTAEIGLMRATEQLSSMEMMAVDPLRRVISPRFWAGVISLPLLTVIFVAVGIWGGSLVGVSWKGIDSGFFWSAMQNAVDWRMDLVNCLIKSVVFAITVTWISLFNGYDAIPTSAGISRATTRTVVHSSLAVLGLDFVLTALMFGN
B2: MlaF (natural protein)
chain: MEQSVANLVDMRDVSFTRGNRCIFDNISLTVPRGKITAIMGPSGIGKTTLLRLIGGQIAPDHGEILFDGENIPAMSRSRLYTVRKRMSMLFQSGALFTDMNVFDNVAYPLREHTQLPAPLLHSTVMMKLEAVGLRGAAKLMPSELSGGMARRAALARAIALEPDLIMFDEPFVGQDPITMGVLVKLISELNSALGVTCVVVSHDVPEVLSIADHAWILADKKIVAHGSAQALQANPDPRVRQFLDGIADGPVPFRYPAGDYHADLLPGS

Assays:
[1] = molecular target: Strep-tagged MlaDΔTM (E. coli K-12); assay: SDS-PAGE of the purified protein
cryo-EM structure = molecular target: the molecule itself; assay: cryo-EM structure

Row | Molecule | stoichiometry N [1] | stoichiometry N (cryo-EM structure)
1 | Strep-tagged MlaDΔTM (domain or fragment) | 6 | –
2 | B1 | – | 2
3 | B2 | – | 2

Source: article doi:10.1101/2020.06.04.133611 (bioRxiv, 2020)
